Experimental data reported in US11505811B2, “Method for the preparation of 2,4-dihydroxybutyrate” (ADISSEO FRANCE S.A.S., priority 2012, dated 2022).

Key:
[1] = homoserine transaminase activity, coupled dehydrogenase assay; format: biochemical; settings: measured at 50 mM homoserine; 2-oxoglutarate as acceptor
Protocol: (§1) Enzymatic assays: Transaminase activity of several candidate aminotransferases was quantified with 2-oxoglutarate as the amino group acceptor. Transaminase reactions were carried out using homoserine and the preferred amino acid of the enzymes. The reactions were followed by the amino acid-dependent oxidation of NADH in the coupled dehydrogenase reaction.
(§2) Transaminase Assays (Reaction Scheme)
(§3) Transaminase: Amino acid+2-oxoglutarate→2-oxo-acid+glutamate
(§4) Dehydrogenase: 2-oxo-acid+NADH→2-hydroxy-acid+NAD^+
The reaction mixture contained 60 mM Hepes (pH 7), 50 mM potassium chloride, 5 mM MgCl2, 4 mM 2-oxoglutarate, 0.1 mM pyridoxal-5′-phosphate (PLP), 0.25 mM NADH, (optionally 5 mM fructose-1,6-bisphosphate) (all products from Sigma), 4 Units/mL of auxiliary 2-hydroxyacid dehydrogenase, and appropriate amounts of purified aminotransferase or cell extract. The auxiliary dehydrogenase enzyme was purified PanE from L. lactis in case of the amino acids phenylalanine and leucine (Chambellon, Rijnen, Lorquet, Gitton, van HylckamaVlieg, Wouters, & Yvon, 2009), malate dehydrogenase (Sigma) in case of aspartate, and rabbit muscle (L)-lactate dehydrogenase (Sigma) when homoserine was used as the starting substrate. Reactions were started by adding 50 mM of the amino acid.
(§5) Enzymatic assays were carried out at 37° C. in 96-well flat bottomed microtiter plates in a final volume of 250 μL. The reactions were followed by the characteristic absorption of NAD(P)H at 340 nm (εNADPH=6.22 mM^−1 cm^−1) in a microplate reader (BioRad 680XR).

[2] = transaminase activity on preferred amino acid (A), coupled dehydrogenase assay; format: biochemical; settings: superscript (A); 50 mM amino acid; 2-oxoglutarate as acceptor
Protocol: as §1, §2, §3, §4
The reaction mixture contained 60 mM Hepes (pH 7), 50 mM potassium chloride, 5 mM MgCl2, 4 mM 2-oxoglutarate, 0.1 mM pyridoxal-5′-phosphate (PLP), 0.25 mM NADH, (optionally 5 mM fructose-1,6-bisphosphate) (all products from Sigma), 4 Units/mL of auxiliary 2-hydroxyacid dehydrogenase, and appropriate amounts of purified aminotransferase or cell extract. […]
as §5

B1: Ec-AspC: aspartate transaminase from E. coli, SEQ ID No. 64 (protein, listed as Escherichia coli)
chain: MFENITAAPADPILGLADLFRADERPGKINLGIGVYKDETGKTPVLTSVKKAEQYLLENETTKNYLGIDGIPEFGRCTQELLFGKGSALINDKRARTAQTPGGTGALRVAADFLAKNTSVKRVWVSNPSWPNHKSVFNSAGLEVREYAYYDAENHTLDFDALINSLNEAQAGDVVLFHGCCHNPTGIDPTLEQWQTLAQLSVEKGWLPLFDFAYQGFARGLEEDAEGLRAFAAMHKELIVASSYSKNFGLYNERVGACTLVAADSETVDRAFSQMKAAIRANYSNPPAHGASVVATILSNDALRAIWEQELTDMRQRIQRMRQLFVNTLQEKGANRDFSFIIKQNGMFSFSGLTKEQVLRLREEFGVYAVASGRVNVAGMTPDNMAPLCEAIVAVL
**Q.** For B1, which “Max. specific activity on Homoserine” value [1] is on record?
**A.** The value was 0.082 μmol/(min mgprot).

**Q.** And the “Max. specific activity on preferred amino acid (A)” value [2]?
**A.** The value was 74.031^(A) μmol/(min mgprot).
